Source: article PMC4682084 (Scientific Reports, 2015)

Columns and labels:
[1] = target: fully human monoclonal agonistic anti-TRAIL-R2 antibody KMTR2 (human)
[2] = target: T1, ecTRAIL-R2:Fc fusion protein (human, UniProt O14763); experiment: SEC; antibody mixed with ecTRAIL-R2:Fc in PBS at a molar ratio of 1:1, 30 min 37 °C; Superdex 200 10/300 GL in D-PBS(-); conditions: both partners purified
T1 construct: TRAIL receptor 2 (TRAIL-R2, DR5), human, extracellular region, residues Ala54-Lys181; also called ecTRAIL-R2 fused with Fc; soluble TRAIL-R2 fused with the Fc region of IgG; source: CHO cells, purified (HiTrap rProtein A FF); not shown: Fc (human IgG1), C-terminal, kept

[3] = target: T2, endogenous TRAIL-R2 in Colo205 cells (human (endogenous in Colo205), UniProt O14763); experiment: immunostaining of cells or tissue; Colo205 cells incubated with gel filtration fractionated monomeric antibody, 100 ng/mL, 1.5 h 37 °C; Alexa 488-labeled anti-human IgG Fab; confocal microscopy; conditions: one partner purified
T2 construct: TRAIL receptor 2 (TRAIL-R2, DR5), endogenous on the human colorectal adenocarcinoma cell line Colo205; also called DR5; membrane TRAIL-R2; source: endogenous, on Colo205 cells

[4] = target: T3, extracellular region of TRAIL-R2 (ecTRAIL-R2) (human, UniProt O14763); experiment: SEC-MALS; ecTRAIL-R2 mixed with excess KMTR2-Fab, RT 1 h; Superdex 200 HR 10/30, 20 mM HEPES pH 7.2, 0.2 M NaCl; multi-angle light scattering (mini-DAWN); conditions: both partners purified
T3 construct: TRAIL receptor 2 (TRAIL-R2, DR5), human, extracellular region, residues Ala54-Lys181; also called DR5; source: CHO cells as ecTRAIL-R2:Fc fusion, purified (rProtein A), digested with enterokinase, cation-exchange chromatography; not shown: Fc (human IgG1), C-terminal, cleaved

fully human monoclonal agonistic anti-TRAIL-R2 antibody KMTR2
inhibition of the proliferation of Colo205 cells (MTS), 1-100 ng/mL, without cross-linking reagent [1]: 6 to 7 ng/mL

B1: KMTR2 LkN53R mutant (Asn53 to Arg in the light kappa chain) (antibody, V domains shown)
VH: QVQLVQSGAEMKKPGASVKVSCKTSGYTFTNYKINWVRQAPGQGLEWMGWMNPDTDSTGYPQKFQGRVTMTRNTSISTAYMELSSLRSEDTAVYYCARSYGSGSYYRDYYYGMDVWGQGTTVTVSS
VL: EIVLTQSPATLSLSPGERATLSCRASQSVSSYLAWYQQKPGQAPRLLIYDASRRATGIPARFSGSGSGTDFTLTISSLEPEDFAVYYCQQRSNWPLTFGGGTKVEIK
notes: as the heavy chain of m5; Fab part (Gln1-Ser226) in PDB 3X3F and 3X3G; as the light kappa chain of m5 (Glu1-Cys214 in PDB 3X3F and 3X3G) with Asn53 changed to Arg; Whole IgG made from the N5KG4-KMTR2 vector by site-directed mutagenesis; copies: 2 + 2
binding result [2]: binds | binding result [3]: binds

B2: Fab fragment derived from KMTR2 (KMTR2-Fab) (Fab, V domains shown)
VH: QVQLVQSGAEMKKPGASVKVSCKTSGYTFTNYKINWVRQAPGQGLEWMGWMNPDTDSTGYPQKFQGRVTMTRNTSISTAYMELSSLRSEDTAVYYCARSYGSGSYYRDYYYGMDVWGQGTTVTVSS
VL: EIVLTQSPATLSLSPGERATLSCRASQSVSSYLAWYQQKPGQAPRLLIYDASNRATGIPARFSGSGSGTDFTLTISSLEPEDFAVYYCQQRSNWPLTFGGGTKVEIK
notes: heavy chain of KMTR2-Fab; light kappa chain of KMTR2; Fully human monoclonal antibody from KM mice; source: papain digestion of recombinant KMTR2, purified by cation-exchange chromatography
stoichiometry N [4]: 1
